Test results as given in US12447213B2, “Modulation of novel immune checkpoint targets” (The Brigham and Women's Hospital, Inc., priority 2016, dated 2025).

B1: CD166: recombinant CD166; transmembrane glycoprotein (type I) encoded by the ALCAM gene, novel ligand of ILT-3 (protein, UniProt Q13740 28-583, looked up)
CD166 antigen: WYTVNSAYGDTIIIPCRLDVPQNLMFGKWKYEKPDGSPVFIAFRSSTKKSVQYDDVPEYKDRLNLSENYTLSISNARISDEKRFVCMLVTEDNVFEAPTIVKVFKQPSKPEIVSKALFLETEQLKKLGDCISEDSYPDGNITWYRNGKVLHPLEGAVVIIFKKEMDPVTQLYTMTSTLEYKTTKADIQMPFTCSVTYYGPSGQKTIHSEQAVFDIYYPTEQVTIQVLPPKNAIKEGDNITLKCLGNGNPPPEEFLFYLPGQPEGIRSSNTYTLTDVRRNATGDYKCSLIDKKSMIASTAITVHYLDLSLNPSGEVTRQIGDALPVSCTISASRNATVVWMKDNIRLRSSPSFSSLHYQDAGNYVCETALQEVEGLKKRESLTLIVEGKPQIKMTKKTDPSGLSKTIICHVEGFPKPAIQWTITGSGSVINQTEESPYINGRYYSKIIISPEENVTLTCTAENQLERTVNSLNVSAISIPEHDEADEISDENREKVNDQAKLIVGIVVGLLLAALVAGVVYWLYMKKSKTASKHVNKDLGNMEENKKLEENNHKTEA

Key:
[1] = vaccination alone or combined with a low dose of estramustine; cited from earlier work
pathogenic Th17 cells = assay: Pathogenic Th17 differentiation in the presence of plate bound recombinant CD166, cytokine production by FACS; format: cell-based, mouse; details: 10 ug/ml, Gp49 dependent, WT or Gp49b KO
Experimental: FIG. 49. Plate-bound CD166 inhibits GM-CSF and enhances IL10 production from pathogenic Th17 cells in a Gp49 dependent way. Naïve T cells from spleen of WT or Gp49b KO mouse were differentiated into pathogenic in vitro with anti-CD3/CD28 Dynabeads in the presence of plate bound recombinant CD166 (10 ug/ml) or BSA (10 ug/ml) as control. Cytokine production from Th17 cells were measured by FACS on day 4.
(§1) To investigate the role of CD166, CD4+CD44^loCD62L^hi naïve CD4 T cells were sorted by FACS and cultured in vitro with plate-bound anti-CD3 (2 ug/ml) and anti-CD28 (2 ug/ml) plus the following polarizing cytokines: IL12 (20 ng/ml) for Th1 cells; IL4 (20 ng/ml) for Th2 cells; TGFb (5 ng/ml) for iTreg cells; IL27 (25 ng/ml) for Tr1 cells; TGFb (2 ng/ml) and IL6 (25 ng/ml) for non-pathogenic Th17; TGFb (2 ng/ml), IL6 (25 ng/ml) and IL23 (20 ng/ml), or, […] (25 ng/ml) and IL23 (20 ng/ml) for pathogenic Th17. Expression of CD166 was measured by FACS on day 3. […] (FIG. 48). To determine the effect of plate-bound CD166, naïve T cells from spleen of WT or Gp49b KO mouse were differentiated into pathogenic in vitro with anti-CD3/CD28 Dynabeads in the presence of plate bound recombinant CD166 (10 ug/ml) or BSA (10 ug/ml) as control. Cytokine production from Th17 cells were measured by FACS on day 4. […] Next, the role of exogenous CD166 was assayed. […] Stained cells were analyzed by FACS.

Th17 cells = assay: Binding of recombinant His-tagged CD166 to Th17 cells (FACS); parameters: species or system mice; details: exogenous, 10 ug/ml; HBSS
Experimental: FIG. 50. Exogenous CD166 binds weakly to Th17 cells (in HBSS). In vitro differentiated pathogenic and non-pathogenic Th17 cells were incubated with recombinant His-tagged CD166 (10 ug/ml) in indicated buffer at room temperature for 30 min, washed twice, and then incubated with anti-His antibody for 10 min. Stained cells were analyzed by FACS.
as §1

Molecule | patients with a ≥50% decrease in serum prostate specific antigen (PSA) [1] [%] | GM-CSF production from pathogenic Th17 cells (pathogenic Th17 cells) | IL10 production from pathogenic Th17 cells (pathogenic Th17 cells) | binding to Th17 cells (Th17 cells)
C[C@]12CC[C@@H]3c4ccc(OC(=O)N(CCCl)CCCl)cc4CC[C@H]3[C@@H]1CC[C@@H]2O [estramustine] | 54 | – | – | –
B1 | – | inhibits | enhances | binds weakly
